Values of other authors in paper PMC7545370.

What was measured:
Ubiquitin (Homo sapiens) = Ubiquitin (Homo sapiens) (UniProt P0CG48)
KAP1 RBCC (Homo sapiens) = KAP1 RBCC (Homo sapiens) (UniProt Q13263)
Chain of KAP1 RBCC (Homo sapiens) (Q13263 62-379): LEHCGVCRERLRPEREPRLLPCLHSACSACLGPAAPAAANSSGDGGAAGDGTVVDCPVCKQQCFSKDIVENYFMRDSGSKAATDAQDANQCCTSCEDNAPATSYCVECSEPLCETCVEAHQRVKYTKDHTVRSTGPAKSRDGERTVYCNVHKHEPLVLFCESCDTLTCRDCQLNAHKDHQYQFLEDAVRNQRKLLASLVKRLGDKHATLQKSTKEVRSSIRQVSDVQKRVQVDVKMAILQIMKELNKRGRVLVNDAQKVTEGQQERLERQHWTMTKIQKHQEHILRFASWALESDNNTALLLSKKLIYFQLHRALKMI

Chain of SMARCAD1 CUE1 (Q9H4L7 154-202): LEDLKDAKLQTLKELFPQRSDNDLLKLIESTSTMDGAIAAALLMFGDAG

SMARCAD1 CUE1 (from UniProt Q9H4L7)
Kd (Ubiquitin (Homo sapiens)): 952 µM
Kd (KAP1 RBCC (Homo sapiens)): 0.158 µM
